Assay [1] deals with T1, SpyCatcher-elastin-CarHC-elastin-SpyCatcher.
T1 construct: Recombinant telechelic fusion protein (68 kDa) with two TEV protease sites, expressed in E. coli; also called BCB; SpyCatcher-ELP-carHC-ELP-SpyCatcher
The experiment in a line: Dynamic shear rheology and erosion tests of the covalently cross-linked (SpyTag-SpyCatcher) hydrogel. An excerpt:
Protein drugs, an important category of modem therapeutics, have a short half-life time inside the body because of rapid plasma clearance and proteolytic degradation, which constitutes a fundamental challenge for their delivery. The feasibility of using the photoresponsive CarHC-ELP hydrogel system to encapsulate and release protein molecules in a controlled manner was investigated. Two recombinant proteins, SpyTag-elastin-like polypeptide-SpyTag-elastin-like polypeptide-SpyTag (represented by the structural linkage “AAA”) (FIG. 6 and FIG. 13) and BCB, were synthesized with an elastin protein fragment to generate a covalently cross-linked ELP hydrogel. The two proteins were dissolved in PBS to make 10 wt % solutions. Gelation was initiated by mixing the two components at a 2:3 molar ratio and a stoichiometric amount of AdoB₁₂ in the dark. Dynamic shear rheology experiments in time-, frequency- and strain-sweep modes and erosion tests further confirmed the formation of a stable hydrogel (G′=0.96 kPa and G″=0.03 Pa) by AAA+BCB+AdoB₁₂ (FIGS. 14A-14C, respectively, and FIG. 15).

For assay [2], the target named is T1, SpyCatcher-elastin-CarHC-elastin-SpyCatc …. The experiment in a line: Size-exclusion chromatography of the ACA+BCB reaction product and of the light-degraded gel. The major peak eluted at the void volume. The SpyTag-SpyCatcher bond is covalent. On the procedure:
Using an Escherichia coli expression system, sufficient amounts of the ACA (98 mg/L) and BCB (66 mg/L) proteins with high purity (FIG. 6-9) were produced and isolaged. After extensive dialysis against distilled water and lyophilization, the resulting protein powders were readily dissolved in PBS. The two protein solutions, ACA and BCB (10 wt % in PBS), were mixed at an equimolar ratio immediately followed by addition of a stoichiometric amount of AdoB 12 to initiate gelation at room temperature in the dark. A red gel-like material was formed within 5 min; the gelation typically continued for at least 7 h in the dark before any subsequent analysis. The resulting gel was sensitive to light and converted to liquid on exposure to white LED light (30 klux) within 20 min (FIG. 2B). observed gel-sol transition can be explained by the light-induced disassembly of CarHC tetramers (FIGS. 1A & 1B). […] This SEC result further confirmed a sufficient pymerization of the CarHC proteins enabled by the SpyTag-SpyCatcher reaction during gelation.
(In general: Size exclusion chromatography separates by hydrodynamic size, large species first.)

B1: SpyTag-elastin-like polypeptide-SpyTag-elastin-like polypeptide-SpyTag (other)
chain: MKGSSHHHHHHVDAHIVMVDAYKPTKLDGHGVGVPGVGVPGVGVPGEGVPGVGVPGVGVPGVGVPGVGVPGEGVPGVGVPGVGVPGVGVPGVGVPGEGVPGVGVPGVGELAHIVMVDAYKPTKTSVPGVGVPGVGVPGEGVPGVGVPGVGVPGVGVPGVGVPGEGVPGVGVPGVGVPGVGVPGVGVPGEGVPGVGVPGVGVPGGLLDAHIVMVDAYKPTKLEWKK
notes: Recombinant protein with three SpyTags; It forms the covalent network with BCB; also called AAA; SpyTag-ELP-SpyTag-ELP-SpyTag
Regarding B1, the binding result in assay [1] is given as “binds”.

B2: SpyTag-elastin-CarHC-elastin-SpyTag (other)
chain: MKGSSHHHHHHVDAHIVMVDAYKPTKLDGHGVGVPGVGVPGVGVPGEGVPGVGVPGVGVPGVGVPGVGVPGEGVPGVGVPGVGVPGVGVPGVGVPGEGVPGVGVPGVGELPEDLGTGLLEALLRGDLAGAEALFRRGLRFWGPEGVLEHLLLPVLREVGEAWHRGEIGVAEEHLASTFLRARLQELLDLAGFPPGPPVLVTTPPGERHEIGAMLAAYHLRRKGVPALYLGPDTPLPDLRALARRLGAGAVVLSAVLSEPLRALPDGALKDLAPRVFLGGQGAGPEEARRLGAEYMEDLKGLAEALWLPRGPEKEAITSVPGVGVPGVGVPGEGVPGVGVPGVGVPGVGVPGVGVPGEGVPGVGVPGVGVPGVGVPGVGVPGEGVPGVGVPGVGVPGGLLDAHIVMVDAYKPTKLEWKK
notes: Recombinant telechelic fusion protein (41 kDa) expressed in E. coli and purified on HisTrap; also called ACA; SpyTag-ELP-carHC-ELP-SpyTag
With B2, the binding result in assay [2] is “binds”.

The record behind these values is patent publication US20190345227A1 (HONG KONG UNIVERSITY OF SCIENCE AND TECHNOLOGY, published 2019).
